Test results from the supplement of paper PMC10567573.
± gives the standard deviation.

Test: protein stability index of a GFP-peptide fusion (GPS, HEK-293T) (PSI 1-6); higher = more stable
Conditions: c terminus: a fixed tail appended
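Also: 24-mer peptide tiles fused after GFP, lentivirally expressed, FACS-sorted into six equal bins by GFP/DsRed ratio, decoded by Illumina sequencing, PSI is the read-weighted mean bin number.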

Sequence | protein stability index (treatment: DMSO) | protein stability index (treatment: MLN4924 1 uM, 8 h)
DRDGTINLSEFQHVISRSPDFASS [CIB1] | 4.31 ± 0.28 | 4.31 ± 0.24
IQGNIEYSCPATNECEITKRRRKS [ESRRG] | 4.85 ± 0.15 | 5.13 ± 0.25
SEEYQQAQHKFLVAVESMEPNNIV [TCF25] | 4.26 ± 0.22 | 4.29 ± 0.15
VGQDNGAVMEFHVSEDFNKMNFIK [WDFY1] | 3.29 ± 1.1 | 3.14 ± 0.36
FTSPDYQQQCHEMAERLEDSVLKG [SDE2] | 3.01 ± 0.59 | 3.62 ± 0.7
RRTYLGGAAGRSQEPEVPCAAVLP [RSPH3] | 4.37 ± 0.092 | 4.37 ± 0.18
EDQHKLYQQIKAGAYDFPSPEWDT [CAMK2B] | 4.79 ± 0.17 | 4.75 ± 0.12
AHEVLQELRDISSMAMEYFDEKIV [FBXO28] | 3.14 ± 0.19 | 3.26 ± 0.45
RTDLEMQIEGLNEELAYLKKNHEE [KRT15] | 4.85 ± 0.3 | 4.77 ± 0.22
SDGILRGNGTGYLPGRGRVLSSWS [RHOBTB2] | 3.42 ± 0.2 | 3.26 ± 0.3
DVTGSVKSERRNLLEDDSDEEEDF [VAMP4] | 5.57 ± 0.14 | 5.66 ± 0.25
ILHIMVKVVKGHRPELPPVCRARP [RIPK4] | 3.35 ± 0.92 | 2.4 ± 0.36
ACKSLQTRQNGIQTNKPALRAVRQ [STX5] | 4.07 ± 0.17 | 3.95 ± 0.2
ENCLSASAAQTDPTTGYRRLLRFS [LOXL2] | 3.34 ± 0.36 | 3.35 ± 0.4
RSLNVASGSGKSGGYGFGRGRASG [KRT71] | 4.35 ± 0.38 | 4.49 ± 0.27
ESEDDPVVKKIALREIRMLKQLKH [CDKL4] | 2.96 ± 0.52 | 3.08 ± 0.33
EAFALPDSLLVVLDMDEGTLSFIV [SPSB4] | 2.42 ± 0.21 | 2.53 ± 0.31
EVDGLRGTNEALLRQLRELEEQFA [PRPH] | 4.35 ± 0.17 | 4.32 ± 0.26
VDGPDLEMLTGQERVALANRKREC [FKBP8] | 4.96 ± 0.16 | 5.14 ± 0.2
DFSRCDMDGATLCNCALEELRLVF [ELF3] | 2.37 ± 0.15 | 2.11 ± 0.32
FRRTDGRCLIWGRKPKVIECSYTS [DHCR7] | 2.35 ± 0.17 | 2.34 ± 0.33
TTMNYPLWSQSYEDSSNQEEEGPS [MAGEA3] | 5.43 ± 0.11 | 5.36 ± 0.13

Sequence | protein stability index (treatment: DMSO) | protein stability index (treatment: MLN4924 1 uM, 8 h)
SVPMNGTSIQWKNHDQNNHNTDRS [EDNRA] | 4.5 ± 0.29 | 4.92 ± 0.24
QVHAWQLYYSKKLLDSWFTSTQEK [JAGN1] | 2.23 ± 0.29 | 2.29 ± 0.29
NIYVHDLLTFQQITTVSKAKGASL [VPS39] | 2.32 ± 0.3 | 2.27 ± 0.34
ESDYTYSSSYEQFNGELPNGRHKI [SRPK2] | 4.04 ± 0.41 | 3.97 ± 0.49
PGSSSGPVLGSSSGAGHGSGSGSG [SPAG8] | 4.87 ± 0.29 | 5.14 ± 0.18
NNWDKWMAKKHKKIRLRCQKGIPP [TBC1D10A] | 2.74 ± 0.24 | 3.1 ± 0.12
VLDLRKNSHQDFWTVWSGNRASLY [PRAME] | 2.19 ± 0.3 | 2.3 ± 0.19
LFGGFTTDKQPLSDAWTYCISKNE [KLHDC2] | 2.63 ± 0.47 | 2.75 ± 0.28
RLQVVKLLAKMFGAKDSELASQNK [PDS5B] | 2.11 ± 0.34 | 2.7 ± 0.075
DGLVGMAIVGGMALGVAGLAGLIG [FIS1] | 2.33 ± 0.6 | 2.09 ± 0.5
LLARGTMQPFNYVTLQCLAARALD [FEM1A] | 2.44 ± 0.16 | 2.22 ± 0.29
ELLREGRASATTTITTAAATSVTV [ZBTB22] | 3.42 ± 0.21 | 3.48 ± 0.28
LLPTKSLVALKCTCCYFKFIIEYY [FBXO34] | 2.8 ± 0.59 | 2.83 ± 0.88
GWFWVCPGGGDICMYRHALPPGFV [ZC3H15] | 2.83 ± 2.2 | 2.57 ± 0.8
VRYLNAYTGIVLLRCRKEFYQLVW [POP5] | 1.94 ± 0.34 | 2.46 ± 0.74
AYTRYLGDLSGGQVLKKIAQKALD [HMOX1] | 2.29 ± 0.19 | 2.23 ± 0.34
WASCLQYDFDTQYAFVGDYSGQIT [WDFY1] | 2.43 ± 0.39 | 2.2 ± 0.21
VPRTEAPAPASSTPQEPWPGPTAP [PDLIM7] | 4.98 ± 0.22 | 5.2 ± 0.27
PAPAFQPFFFTGAFPFNMQELVLK [ANKRD40] | 2.07 ± 0.82 | 2.77 ± 1.2
EREASPSNSCQDSTDTESNNEEQR [IKZF1] | 5.24 ± 0.45 | 5.61 ± 0.22
DDRKLAALLKFHTLDSYEDKQKLK [YJU2B] | 3.97 ± 0.28 | 4.12 ± 0.27
PSLPSCLCSFLLLLLLQVSSSYAG [MOG] | 2.44 ± 0.048 | 2.77 ± 0.34

Sequence | protein stability index (treatment: DMSO) | protein stability index (treatment: MLN4924 1 uM, 8 h)
QYIISDLASARIIEQDAVVPSEWL [GMCL1] | 2.76 ± 0.24 | 2.76 ± 0.25
FFEDGDVQRHLYLQDVIMQVADVP [ZNF511] | 2.82 ± 0.29 | 2.81 ± 0.43
VGPAEPTLVNFHLKRSIPQVSPVR [CPN1] | 3.44 ± 0.17 | 3.4 ± 0.32
PVRAAASSPVTTLTQTMHDLAGLG [CDC25B] | 4.03 ± 0.24 | 3.93 ± 0.19
KGHNTPKDIAHFWELGGGTSLLDL [DYNC2LI1] | 3.02 ± 0.28 | 3.2 ± 0.11
SPPGSTKRRKSMSGASPKESTNPE [CDC25A] | 5.47 ± 0.11 | 5.4 ± 0.21
DFDGKLKDIAGEFKEQLQALIPYV [ATL3] | 2.38 ± 0.47 | 2.94 ± 0.31
VFPPEVPISEKAKDLILRFCIDSE [STK38L] | 3.06 ± 0.35 | 3.32 ± 0.42
RELLDRAMREAIQSYPSQDKPLPP [SOAT2] | 3.94 ± 0.12 | 3.95 ± 0.083
TFGFITMTPQLFINYKLKSVAHLP [CLPTM1] | 2.59 ± 0.47 | 2.92 ± 0.86
TLNKCAVMKLEISPHRKRSDDSDE [DLC1] | 4.11 ± 0.31 | 4.29 ± 0.094
HSRVAKPHQREKIDKEIELHRILH [PLK2] | 3.42 ± 0.4 | 3.44 ± 0.07
GASLYAISNVCEEYIVKKLSRQEF [SLC35F2] | 2.3 ± 0.27 | 2.45 ± 0.43
YLESETETTEAIDDEGWLHSGDLG [ACSBG2] | 5.25 ± 0.14 | 5.497 ± 0.035
NLLESKADGIEVSYNACGVLSHIM [ZER1] | 2.25 ± 0.08 | 2.31 ± 0.28
KTMQSEETRVWHRRDGKWQNVHFH [CAMK2D] | 2.85 ± 0.15 | 3.14 ± 0.16
EEKKPGELKRLVESRRQQILREFE [TRIM39] | 4.43 ± 0.55 | 4.59 ± 0.22
DHNEAMKPEEPPQNLLREKIMKLP [PCMTD1] | 4.63 ± 0.32 | 4.66 ± 0.12
SELEDLTEPEQRELKTKLTKLEAE [TPD52L3] | 5.31 ± 0.45 | 5.6 ± 0.15
RHRIPEPEAAVLFRQMATALAHCH [TRIB3] | 2.48 ± 0.084 | 2.29 ± 0.19
LKPAMTQAQDEVEQERRLSEARLS [FCHSD1] | 5.25 ± 0.18 | 5.19 ± 0.25
